Measurements as given in article PMC5798305.

Biological target: naked mole-rat ASIC1b (naked mole-rat)

pH EC50 of proton-gated currents, whole-cell patch clamp of CHO cells cotransfected with nmrASIC3 + nmrASIC1b: 5.58 pH
Substance: naked mole-rat ASIC3 (natural protein)
